B1: RBD-14 peptide, P59594 (peptide)
chain: CYWPLNDYGFYT
B2: RBD-15 peptide, P59594 (peptide)
chain: TTGIGYQPYRVV
B3: RBD-11b peptide (peptide)
chain: YKYRYL
B4: RBD-11 peptide, P59594 (peptide)
chain: YKYRYLRHGKLR

Experiments:
Conditions in all cases: modification not given
[1] = biological target: ACE2 (Homo sapiens), Q9BYF1; test: SPR
[2] = biological target: ACE2 (Homo sapiens), Q9BYF1; test: SPR; remark: listed apart in the source
[3] = biological target: ACE2 (Homo sapiens), Q9BYF1; test: SPR; remark: listed apart in the source
[4] = biological target: ACE2 (Homo sapiens), Q9BYF1; test: NMR
[5] = biological target: ACE2 (Homo sapiens), Q9BYF1; test: SPR; remark: listed apart in the source

Sequence of ACE2 (Homo sapiens), Q9BYF1 (Q9BYF1 18-740): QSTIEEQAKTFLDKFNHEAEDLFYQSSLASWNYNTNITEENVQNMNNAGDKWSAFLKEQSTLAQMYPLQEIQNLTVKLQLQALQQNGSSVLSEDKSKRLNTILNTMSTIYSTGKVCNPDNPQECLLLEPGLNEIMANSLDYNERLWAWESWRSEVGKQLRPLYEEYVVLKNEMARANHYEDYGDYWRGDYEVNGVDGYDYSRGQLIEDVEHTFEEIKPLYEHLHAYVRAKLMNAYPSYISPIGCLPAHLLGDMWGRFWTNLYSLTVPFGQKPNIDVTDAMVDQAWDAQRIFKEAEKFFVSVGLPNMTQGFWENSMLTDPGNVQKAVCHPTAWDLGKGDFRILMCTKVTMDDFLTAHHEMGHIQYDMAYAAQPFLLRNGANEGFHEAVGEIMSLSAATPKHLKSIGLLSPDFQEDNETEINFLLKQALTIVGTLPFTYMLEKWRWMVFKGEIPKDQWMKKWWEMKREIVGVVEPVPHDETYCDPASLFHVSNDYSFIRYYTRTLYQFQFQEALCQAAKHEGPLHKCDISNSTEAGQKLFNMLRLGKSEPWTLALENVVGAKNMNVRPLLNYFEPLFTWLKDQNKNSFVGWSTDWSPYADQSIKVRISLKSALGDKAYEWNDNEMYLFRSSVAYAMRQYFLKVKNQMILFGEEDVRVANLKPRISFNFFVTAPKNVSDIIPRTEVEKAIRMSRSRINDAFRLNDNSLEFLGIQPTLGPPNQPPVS

Binder | Kd [1] | Kd [2] | Kd [3] | Kd [4] | Kd [5]
B1 | 430 µM | 450 µM | – | – | –
B2 | 450 µM | – | 672 µM | – | –
B3 | 46 µM | – | – | 60 µM | –
B4 | 67 µM | – | – | – | 85 µM

From PMC7114193
